Results from US20240035012A1.

Experiments:
[1] = biological target: prefusion stabilized trimeric SARS-CoV-2 spike protein ectodomain (SARS-CoV-2) (UniProt P0DTC2)
[2] = biological target: prefusion stabilized trimeric SARS-CoV-2 spike protein ectodomain (SARS-CoV-2) (UniProt P0DTC2); remark: listed apart in the source

Substance: ACE2-short-3HB (receptor)
- Kd [1]: 3.9 nM
- IC50 [2]: 2.9 nM
